Our source for the Kd values is paper PMC6455120 (2019).

The target in this assay is T1, MERS-CoV spike ectodomain ECD (Middle East respiratory …, UniProt K9N5Q8).
T1 chain: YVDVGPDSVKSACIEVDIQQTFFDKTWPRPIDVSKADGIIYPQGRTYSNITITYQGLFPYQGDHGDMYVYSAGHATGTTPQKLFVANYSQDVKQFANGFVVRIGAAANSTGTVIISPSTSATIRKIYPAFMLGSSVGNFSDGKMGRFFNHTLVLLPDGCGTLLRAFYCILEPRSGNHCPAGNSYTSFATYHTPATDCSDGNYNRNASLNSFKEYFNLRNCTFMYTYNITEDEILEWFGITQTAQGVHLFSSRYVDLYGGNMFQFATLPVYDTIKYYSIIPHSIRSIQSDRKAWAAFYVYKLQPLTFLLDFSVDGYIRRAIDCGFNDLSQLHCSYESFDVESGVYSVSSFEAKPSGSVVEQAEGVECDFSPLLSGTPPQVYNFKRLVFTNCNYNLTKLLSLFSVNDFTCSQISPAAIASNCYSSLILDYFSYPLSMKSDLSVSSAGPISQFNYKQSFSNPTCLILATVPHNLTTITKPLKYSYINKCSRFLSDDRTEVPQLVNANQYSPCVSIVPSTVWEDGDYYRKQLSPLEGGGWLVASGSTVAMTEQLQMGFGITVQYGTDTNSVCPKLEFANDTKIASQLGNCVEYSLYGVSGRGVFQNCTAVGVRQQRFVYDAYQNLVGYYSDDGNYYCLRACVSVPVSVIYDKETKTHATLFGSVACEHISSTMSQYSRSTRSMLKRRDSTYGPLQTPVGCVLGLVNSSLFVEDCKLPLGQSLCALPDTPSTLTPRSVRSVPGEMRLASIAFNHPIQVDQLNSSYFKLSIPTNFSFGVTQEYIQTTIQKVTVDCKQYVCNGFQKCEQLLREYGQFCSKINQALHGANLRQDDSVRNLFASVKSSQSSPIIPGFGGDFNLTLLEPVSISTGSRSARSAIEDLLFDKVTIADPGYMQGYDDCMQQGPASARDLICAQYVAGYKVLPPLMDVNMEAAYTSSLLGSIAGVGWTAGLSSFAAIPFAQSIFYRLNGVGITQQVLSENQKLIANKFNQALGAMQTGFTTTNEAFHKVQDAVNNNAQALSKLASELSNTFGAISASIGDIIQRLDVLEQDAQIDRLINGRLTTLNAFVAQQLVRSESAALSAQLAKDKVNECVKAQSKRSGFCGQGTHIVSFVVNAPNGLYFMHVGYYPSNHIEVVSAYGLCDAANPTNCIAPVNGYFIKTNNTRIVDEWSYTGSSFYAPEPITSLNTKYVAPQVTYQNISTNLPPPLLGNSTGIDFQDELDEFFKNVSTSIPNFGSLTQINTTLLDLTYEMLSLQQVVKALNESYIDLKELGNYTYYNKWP

B1: DPP4 (protein)
chain: SRKTYTLTDYLKNTYRLKLYSLRWISDHEYLYKQENNILVFNAEYGNSSVFLENSTFDEFGHSINDYSISPDGQFILLEYNYVKQWRHSYTASYDIYDLNKRQLITEERIPNNTQWVTWSPVGHKLAYVWNNDIYVKIEPNLPSYRITWTGKEDIIYNGITDWVYEEEVFSAYSALWWSPNGTFLAYAQFNDTEVPLIEYSFYSDESLQYPKTVRVPYPKAGAVNPTVKFFVVNTDSLSSVTNATSIQITAPASMLIGDHYLCDVTWATQERISLQWLRRIQNYSVMDICDYDESSGRWNCLVARQHIEMSTTGWVGRFRPSEPHFTLDGNSFYKIISNEEGYRHICYFQIDKKDCTFITKGTWEVIGIEALTSDYLYYISNEYKGMPGGRNLYKIQLSDYTKVTCLSCELNPERCQYYSVSFSKEAKYYQLRCSGPGLPLYTLHSSVNDKGLRVLEDNSALDKMLQNVQMPSKKLDFIILNETKFWYQMILPPHFDKSKKYPLLLDVYAGPCSQKADTVFRLNWATYLASTENIIVASFDGRGSGYQGDKIMHAINRRLGTFEVEDQIEAARQFSKMGFVDNKRIAIWGWSYGGYVTSMVLGSGSGVFKCGIAVAPVSRWEYYDSVYTERYMGLPTPEDNLDHYRNSTVMSRAENFKQVEYLLIHGTADDNVHFQQSAQISKALVDVGVDFQAMWYTDEDHGIASSTAHQHIYTHMSHFIKQCFSLP
The term Kd denotes the free concentration of one partner at which half of the binding sites on the other are occupied at equilibrium, for simple one-to-one binding. B1 showed a Kd of 3.42 nM. This counts as single-digit nanomolar.
